The results in this text go back to the nanobody polyreactivity screen of Harvey et al. (2022).

A short description of this data set: yeast display, Sf9 membrane polyspecificity reagent, FACS + sequencing; frameworks hold sequencing errors. In a few lines: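 Polyreactivity labels are assigned by the sorting gate from which each nanobody was recovered. The gates were low and high (top ~1%), set on anti-HA fluorescence for expression and streptavidin fluorescence for reagent binding. Before sorting, galactose-induced (36–48 hours) yeast display cells were stained for 1 hour at 4 °C with 10% biotinylated, detergent-solubilized Sf9 membrane reagent.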
In the case of “QVQLVESGGGLVQAGGSLRLSCAASGRIFNPYAMGWYRQAPGKERELVAAISWSGSTTYYADSVKGRFTISRDNAKNTVYLQMNSLKPEDTAVYYCAAEVVFFGWNYDYWGQGTQVTVSS”, the “polyreactivity (PSR sort gate)” value is on record as “high polyreactivity”.

For the sequence “QVQLVESGGGLVQAGGSLRLSCAASGFTFLYYDMGWYRPAPGKERELVAAITSSGTSTYYADSVKGRFTISRDNAKNSVYLQMNSLKPEDTAVYYCAVLYTYAGRHRYGYWGQGTQVTVSS”, the “polyreactivity (PSR sort gate)” value is “high polyreactivity”.

For “QVQLVESVVGLVQAGGSLRLSCASSGSIFYYYTMGWYRHAPGKERELVAAITRGGSTNYADSVKGRFTISRDNAKNTGYLQMNSLKPEDTAVYYCAVAWYRGWYRYDYWGQGTQVTVSS”, the “polyreactivity (PSR sort gate)” value is reported as “high polyreactivity”.

As for “QVQHVESGGGLVQAGGSNRLSCAASAFIFRSNAMGWYRQAAGKEREFVPAISSRGGSTTYADSVKGRFTISRDNAKITVYLQMKSLKPEDTAVYYCARDCYYYPQYRKRYYYWGQGTQVSVSS”, the “polyreactivity (PSR sort gate)” value is given as “high polyreactivity”.

In the case of “QVQLVESGGGLVQAGGSLRLSCAASGRTLPFYAMGWYRQAPGKERELLAAINRSGGSTYYADSVKGRFTISRDNAKNTVSLQMNILKPEDTAVYYGNNVTVPGLGYYPPSYSNGHWGQGTQVSVSS”, the “polyreactivity (PSR sort gate)” value was “high polyreactivity”.

For the sequence “QVQLVESGGGLVQAGGSLRLSCAASGSTLFTYAMGWYRQAPGKERELVAAITSSGSTYYADSVKGRFTISRDNAKNTVYFQMNSLKPEDTAVYYCAVPGYRYTKYYYWGQGTQVTVSS”, the “polyreactivity (PSR sort gate)” value is listed as “low polyreactivity”.

Regarding “QVQLVESGVGLVQAGGSLRLSCAASGFTFGDNAMGWYRQAPGKERELVADITSSGSTNYADSVKGRFTISRDNAKNTVYLQMNSLKPEDTAVYYCNAVDSVDAPVYKDLGSEYDSWGQGTQVTVSS”, the “polyreactivity (PSR sort gate)” value is listed as “low polyreactivity”.

Take “QVQLVESGGGLVQAGGSLRLSCAASGFTFRGYAMGWYRQAPGKERELVAAISRGGNTKYADSVKGRFTISRDNAKNTVYLQMNSLKPEDTAVYYCASYYFSSSHRYGYWGQGTQVTVSS”: the “polyreactivity (PSR sort gate)” value was “high polyreactivity”.

Consider “QVQLVESGGGLVQAGGSLRLSCAASGSTFYHNAMGWYRQAPGKERELVAAMTWSGSRTYYADSVKGRFTISRDNAKNTVYLQMNSLKPEDTAVYYCAARDYWGQGTQVTVSS”, for which the “polyreactivity (PSR sort gate)” value was “high polyreactivity”.

Turning to “QVQLVESGGGLVQAGGSLRLSCAASGLIFRPYAMGGYRQAPGKARELVAAITSGGSTDYADSLKGRFTISRDNAKNTVYLQMNSLNPEDTAVFYCNADFYPHDGYPWQGDYDYWGQGTQVTVSS”, the “polyreactivity (PSR sort gate)” value was “low polyreactivity”.

With “QVQLVESGGGLVQAGGSLRLSCAASGSTSDSNAMGWSRQAPGKERELVAAITYSGDSTYYAYSVKGRFTISRDNAKNTVYLQMNSLKPEDTAVYYCATETYPSYEVDYWGQGTQVTVSS”, the “polyreactivity (PSR sort gate)” value is recorded as “low polyreactivity”.

As to “QVQLVESGGGLVQAGGSLRLSCAASGSIFWYNTMGWYRQAPGKERELVAAITFSGGSTYYADSVKERFTISRDNAKNTVYLQMNSLKPEDTAVYYCAAVFYSAVGYYYWGQGTQVTVSS”, the “polyreactivity (PSR sort gate)” value was “low polyreactivity”.

As for “QVQLVESGGGLVQAGGSLRLSCAASGSTFARYAMGWYRQAPGKERELVAAISRSGSNTYYADSVKGRFTISRDNAKNTVYLQMNSLKPEDTAVYYCAAVQPGQRTVAYDYWGQGTQVTVSS”, the “polyreactivity (PSR sort gate)” value is reported as “high polyreactivity”.

As for “QVQLVESGGGVVQAGGSLRLSCAASGRIFDIYAMGWYRQAPGKARELVAAITRGGSTYADSVKGRFTISRDNAKYTVYLQMNSLKPEVTAVYYCAASLYSYRSPYTFYYWGQGTQVTVSS”, the “polyreactivity (PSR sort gate)” value is recorded as “high polyreactivity”.

For “QVQLVESGVGLVQAGGSLRLSCAASGSIINFYAMGLYRQAPGKERELVAAINYNDINTYYADSVKGRFTISRDNAKNTVYLQMNSLKPEDTAVYYCNAELNVQYLYGYTGEYDYWGQGTQVTVSS”, the “polyreactivity (PSR sort gate)” value is recorded as “low polyreactivity”.

On to “QVQLVESGAGLVQAGGSLRLSCAASVRIFDSYAMGWSRQAPGKERELVAAITGSGGRTYYAESVKGRFTISRDNAKNTVYLQMNSQKPEYTAVYYCARALGQRRYDYWGQGTHVTVSS”, for which the “polyreactivity (PSR sort gate)” value was “high polyreactivity”.

For the sequence “QVQLVESGGGLVQAGGSLRLSCASSGRTFAGNVMGWYRQAPGKERELVAAITGRGGSTYYADSVKGRFTISRDNAKNTVYLQMNSLKPEDTAVYYCNALTWPRYYYWGQGTQVTVSS”, the “polyreactivity (PSR sort gate)” value is listed as “high polyreactivity”.

For the sequence “QVQLVEPGGGLVQAGGSLRLSCAASGRIFRGYAMGWYRQAPGKVRELVAANSQSGSSTYYADSVKGRFTISRDNAKNTVYLKMNSLKPEDTAVYYCAVKYLKHFGYWGQGTQVTVSS”, the “polyreactivity (PSR sort gate)” value is “high polyreactivity”.

On to “QVQLVESGGVLVQAGGSLRLSCAASGSTFGANAMGWNREAPGKEREFVAAISGSGTTTYYADSVKGRFTISRDNAKNSVYLHLNSLKQEDTAVYYCAKTRKAHWLEYWGQGTKVTVSS”, for which the “polyreactivity (PSR sort gate)” value is listed as “low polyreactivity”.

Regarding “QVQLVESGGGLVQAGGSLRLSCAASGRIFRRYAMGWYRQAPGKERELVAAISTSGGSTYYADSVKGRFTISRDNAKNTVYLQMNSLKPEDTAVYYCNVYKPPTRGGVLQYGYWGQGTQVTVSS”, the “polyreactivity (PSR sort gate)” value is on record as “low polyreactivity”.

In the case of “QVQLVESGGGLVQAGGSLRLSCAASGFSFYSYTMGWYRQAPGSVRELVAAISRSGGRTSYADSVKGRFTNSRDNAKNTVYLQMNSLKPDDTAVYYRNAVRLLQTFAEYEYWGQGTQVTVSS”, the “polyreactivity (PSR sort gate)” value is listed as “high polyreactivity”.

In the case of “QVQLEESRRGLVQARGSLRLSCASSGYIFLYYALGCYRQAPGKERELVAAITTRGGRTYYADSVKGRFTISRDNAKNTVYVQMNSLKPEDTAVYYCAVEVSWSYYSYGYWGQGTQVTVSS”, the “polyreactivity (PSR sort gate)” value is “low polyreactivity”.

In the case of “QVQLVESGGGLVQAGGSLRLSCAASGGTFDWNPMGWYRQAPGKERELVASITSGGRTNYADSVKGRFTISRDNAKNTVYLQMNSLKPEDTAVSYCAKYRRSAYPWQTWVGQKFDYWGQGTHVTVSS”, the “polyreactivity (PSR sort gate)” value is reported as “low polyreactivity”.

For the sequence “QVQLVESGGGLVQAGGSLRLSCAASGRIYCKYAMGRYRQAPGKERELVAGISRGAGRTYYADSVKGRFTISRDNAKNTVYLQMNSLKPADTAVSYCAAVPSYHSTSPFYYWGQGTQVTVSS”, the “polyreactivity (PSR sort gate)” value is listed as “high polyreactivity”.

As to “QVQLVESGGGLVQAGGSLRLSCSASGSIFRGYTMGLYRQAPGKERELVAGITLRGVSTYYADSVKGRFTISRDNAKNTVYVQMNSLKPEDTAVYYGAVDYGRAVQGDSITYDFNYWGQGTQVTVSS”, the “polyreactivity (PSR sort gate)” value was “low polyreactivity”.

As for “QDQLVESGGGLVQAGGSLRLSCAPSGFIFDDNAMGWYRQAPGKERELVAAITSGGGSTYYADSVKGRFTISRDNAKNTFYLQMNSLKPEDTAVYYCNKVYGWYSFKWGPTASDYWGQGTQVTVSS”, the “polyreactivity (PSR sort gate)” value is given as “low polyreactivity”.

Regarding “QVQLVESGGGLVQAGGSLRLSCAASGIILSAYAMGWYRQAPGKERELVARISRSGGRTYYADSVKGRFTISRDNAKNTVYLQMNSLKPEDTAVYYCAADYTYGFGLYFGYGYWRQGTQVTVSS”, the “polyreactivity (PSR sort gate)” value is listed as “high polyreactivity”.

Turning to “QVQLVESGGGLVQAGGSLRLSCAASVFTFYLYAMGWDRQAPGKERELVADITKRGGSTDYADSVKGRFTISRDNAKNTVYLQMNSLKPEDTAVYYCAARGPTFGVDYGYWGQGTQVTVSS”, the “polyreactivity (PSR sort gate)” value is listed as “high polyreactivity”.

On to “QVQLVESGGGLVQAGGSLRLSCAASGRIFENNAMGWYRPAPGKERELVAAITSGGSTYYADSVKGRFTISRDNAKNTVYLQMNSLKPEDTAVYYCNVTFRVDPWTRTGYDYWGQGTQVTVSS”, for which the “polyreactivity (PSR sort gate)” value is “high polyreactivity”.

On to “QVQLVESGGGLVQAGGSLRLSCAASGRTSGFNTMGWYRQAPGKERELVAAISFSGGSTYYADSVKGRFTISRDNAKNTGYLQMNSLKPEDTAVYYCAAELERDEEYDYWGQGTQVTVSS”, for which the “polyreactivity (PSR sort gate)” value is listed as “low polyreactivity”.

Consider “QVQLQESGGGLVQAGGSLRLSCAASGSIFHLHIMCWYRQAPGKERESVAAISYGTSTYYADSVKGRFTICRDNAKNTLYLQMNSPKPDDTAVYYCAALFLVSKHHHYWGEGTQVTVSS”, for which the “polyreactivity (PSR sort gate)” value is “low polyreactivity”.

As for “QVQLVESGGGLVQAGGSLRLSCAASGFTFSWYTMGWYRQAPGKERELVAAITSGGSTNYADSVKGRFTISRDNAKNTVYLQMNSLKPEDTAVYYCNAYWSYSISGYDYWGQGTQVTVSS”, the “polyreactivity (PSR sort gate)” value is “low polyreactivity”.

On to “QVQLHESGGGLVQAGGSLRLRCAASGTISYAGPMGWYRQAPGKEREFGAGIGVGSNTNYADSVKGRYTIIRDNAKNTVFLQMNSLKPEDTAVYYCAVGGYAPLGRPYWGQGTQVTVSS”, for which the “polyreactivity (PSR sort gate)” value is “low polyreactivity”.

With “QVQLVESGGGLVPAGGSLRLSCAASGSIFVGYAMGWYRQAPGKERELVADITVGGGSTFYADSVKGRFTISRDNAKNTVYLQMTSLKPEDTAVYYCAKYAGVYEYDYWGQGTQVTVSS”, the “polyreactivity (PSR sort gate)” value is “low polyreactivity”.

On to “QVQLVESGGGLVQAGGSLRLSCAASGSIFRWYAMGWYRQAPGKEREFVAAISWSGTSTYYADSVKGRFTISRDNAKNTVYLQMNSLKPEDTAVYYCNALLPSSRAPDYGYWGQGTQVTVSS”, for which the “polyreactivity (PSR sort gate)” value is “high polyreactivity”.

“QVQLVESGGGLVQAGGSLRLSCAASGSIITWYTMGWYRQATGKERELVASISSGGTTKYADSVKGRFTISRDNAKNTVYLQMNCLKPEDTAVYYCAAEYIAYYGTGTYYGLDYWGQGTQVTVSS”: the “polyreactivity (PSR sort gate)” value was “low polyreactivity”.

For the sequence “QVQLVESGGGLVQAGGSLRLICAASGSIFGYNAMVWYRQAPGKERELVAVINASGASTYYADSVKGRFTISRDNAKNTVYLHMNSLKPEDTAVYSCAKDPFPFPGGDYWGQGTQVTVSS”, the “polyreactivity (PSR sort gate)” value is “low polyreactivity”.

For “QVQLVESGGGLVQAGCSLRLSCAASGSTFRKYAMGWYRQAPGKEREFVAAITWSTGTTYYADSVKGRFTISRDNAKNTVYLQMNSLKPEDTAVYYFAADSQPPHELYESIEHESWGQGTQVTVSS”, the “polyreactivity (PSR sort gate)” value is “low polyreactivity”.

Consider “QVQLQESGDGLVQAGGSLRLSSAASGTIFSDYGMGGYRQAPGKERELLAGISDGCNTNYTDSVKGRFTISRDNAHRVSADELPETGVYRGVLLRGCERWLLFYVYWGQGTQVTVSS”, for which the “polyreactivity (PSR sort gate)” value was “high polyreactivity”.

“QVQLVESGGGLVQAGGSLRLSCADSGSTFDSYAMGWSRQAPGKEMDMVAGITWGGGSTYYADSVKGRLTISRDNAKNTVYLQLNSLKPEDTAVYDCAAEEVYYWYTYYYWGEGTQVTVSS”: the “polyreactivity (PSR sort gate)” value is “high polyreactivity”.

With “QVQLVESGGGLVQAGGSLRLSCAASGSTFCGYAMGWSRQAPGKEREFVATISISGGSTYYADSVKGRFTISRDNAKNTVYLQMNSLKPEDTAVYYCNADYYFSWGSIEDYWGQGTQVTVSS”, the “polyreactivity (PSR sort gate)” value is listed as “low polyreactivity”.
